This note sets out measurements from patent US20250298013A1.

The target of assay [1] is Background (Staphylococcus aureus). As to the kind of experiment: SPRi, in-line blocking: IgG mix injected after thiolated PEG over a chip functionalised with thiolated protein A, (-) press load [Continued) C].
Assay [2] has the same target. As to the kind of experiment: SPRi, in-line blocking: IgG mix injected after thiolated PEG over a chip functionalised with thiolated protein A, (+) press load (300 Pa) [Continued) E].

On to IgG mix (antibody), for which the IgG change (Background curve) (%Reflectivity) in assay [1] came out at 12; in assay [2], 2.
